Experimental data taken from the supplement of paper PMC7125110.
± gives the standard error. For part of these data: This sample holds only a part of the variants without activity.

B1: glmS ribozyme (parent)
chain: AUAAAAGCGCCAGAACUACAGAAAUGUAGUUGACGAGGAGGAGGUUUAUCGAAUUUUCGGCGGAUGCCUCCAAA

What was measured:
Settings in all cases: with glucosamine-6-phosphate
glucosamine-6-phosphate [1] = variants of: B1; assay: kcat; higher = faster cleavage; RNA array
How it was run: (§1)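 Glucosamine-6-phosphate (40 μM to 10 mM) in HEPES/KCl/Mg(OAc)2 buffer was flowed over sequenced MiSeq chips, and tiles were imaged over ~14 h. Barcoded ribozyme variants there had been transcribed in situ by E. coli RNA polymerase and were tracked through a hybridised Cy3 probe at 37 °C. One- or two-exponential decay fits to per-tile medians, normalised to baseline and to non-cleaving reference variants, gave kobs. kcat and KM came from weighted Michaelis–Menten fits across concentrations.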

glucosamine-6-phosphate [2] = variants of: B1; assay: KM; higher = weaker cofactor use; RNA array
How it was run: as §1

glucosamine-6-phosphate [3] = variants of: B1; assay: self-cleavage kobs at 40 uM GlcN6P; higher = faster cleavage; RNA array
How it was run: as §1

glucosamine-6-phosphate [4] = variants of: B1; assay: self-cleavage kobs at 160 uM GlcN6P; higher = faster cleavage; RNA array
How it was run: as §1

glucosamine-6-phosphate [5] = variants of: B1; assay: self-cleavage kobs at 640 uM GlcN6P; higher = faster cleavage; RNA array
How it was run: as §1

glucosamine-6-phosphate [6] = variants of: B1; assay: self-cleavage kobs at 2500 uM GlcN6P; higher = faster cleavage; RNA array
How it was run: as §1

glucosamine-6-phosphate [7] = variants of: B1; assay: self-cleavage kobs at 10000 uM GlcN6P; higher = faster cleavage; RNA array
How it was run: as §1

Row | Variant | kcat (glucosamine-6-phosphate [1]) | KM (glucosamine-6-phosphate [2]) | self-cleavage kobs at 40 uM GlcN6P (glucosamine-6-phosphate [3]) | self-cleavage kobs at 160 uM GlcN6P (glucosamine-6-phosphate [4]) | self-cleavage kobs at 640 uM GlcN6P (glucosamine-6-phosphate [5]) | self-cleavage kobs at 2500 uM GlcN6P (glucosamine-6-phosphate [6]) | self-cleavage kobs at 10000 uM GlcN6P (glucosamine-6-phosphate [7])
1 | A39G G40U U55C C71A | 0.00728 ± 0.0021 s⁻¹ | 2200 ± 930 µM | 0.000207 ± 4.1e-05 s⁻¹ | 0.000368 ± 8.6e-05 s⁻¹ | 0.00178 ± 0.00043 s⁻¹ | 0.00448 ± 0.00083 s⁻¹ | 0.00562 ± 0.001 s⁻¹
2 | G26U G40U | 0.000912 ± 0.00012 s⁻¹ | 272 ± 64 µM | 0.000119 ± 2.3e-05 s⁻¹ | – | 0.000586 ± 0.00016 s⁻¹ | 0.00144 ± 0.00066 s⁻¹ | 0.000883 ± 0.00019 s⁻¹
3 | C67U C70U C71U | 1.14e-05 ± 1.2e-06 s⁻¹ | 339 ± 160 µM | – | – | – | – | –
4 | A14G A39C | 0.0183 ± 0.0021 s⁻¹ | 3470 ± 520 µM | 0.000225 ± 3.6e-05 s⁻¹ | 0.000699 ± 0.00017 s⁻¹ | 0.00281 ± 0.00047 s⁻¹ | 0.00921 ± 0.0025 s⁻¹ | 0.0134 ± 0.0019 s⁻¹
5 | A15U C67A | 0.00148 ± 0.00015 s⁻¹ | 1700 ± 250 µM | 4.29e-05 ± 1e-05 s⁻¹ | 0.000119 ± 1.6e-05 s⁻¹ | 0.000447 ± 9.2e-05 s⁻¹ | 0.000861 ± 0.00014 s⁻¹ | 0.00127 ± 0.00019 s⁻¹
6 | A53C A64U | < 1e-05 s⁻¹ | – | < 1e-05 s⁻¹ | – | – | – | –
7 | U49G G66U | 6.16e-05 ± 2.8e-07 s⁻¹ | 5640 ± 59 µM | – | – | – | – | 3.94e-05 ± 1.3e-05 s⁻¹
8 | G13C U54C | 0.000135 ± 1.9e-05 s⁻¹ | 2870 ± 1000 µM | – | – | – | 5.89e-05 ± 1.2e-05 s⁻¹ | 0.000107 ± 1.7e-05 s⁻¹
9 | G13C U54A | 0.000202 ± 4.2e-05 s⁻¹ | 8810 ± 3600 µM | – | – | – | 4.26e-05 ± 8.3e-06 s⁻¹ | 0.000108 ± 7.3e-06 s⁻¹
10 | A53G C70G | 0.000195 ± 1.8e-05 s⁻¹ | – | 0.000132 ± 2.3e-05 s⁻¹ | 0.000309 ± 9.5e-05 s⁻¹ | 0.000196 ± 2.9e-05 s⁻¹ | 0.000173 ± 2.5e-05 s⁻¹ | 0.000215 ± 3.6e-05 s⁻¹
11 | A6U A15U | 3.81e-05 ± 2.5e-06 s⁻¹ | 1260 ± 360 µM | – | – | – | 2.31e-05 ± 8.8e-06 s⁻¹ | 3.44e-05 ± 7e-06 s⁻¹
12 | A6U C16G | 5.15e-05 ± 3.5e-06 s⁻¹ | 3290 ± 720 µM | – | – | – | 2.28e-05 ± 1e-05 s⁻¹ | 3.87e-05 ± 6.9e-06 s⁻¹
13 | C16A A42C | < 1e-05 s⁻¹ | – | < 1e-05 s⁻¹ | < 1e-05 s⁻¹ | – | < 1e-05 s⁻¹ | < 1e-05 s⁻¹
14 | C50U C68U | 2.09e-05 ± 3.8e-06 s⁻¹ | – | – | – | – | 3e-05 ± 1.2e-05 s⁻¹ | –
15 | A42U C71U | 0.000154 ± 2e-05 s⁻¹ | 1320 ± 400 µM | < 1e-05 s⁻¹ | – | 4.75e-05 ± 6.4e-06 s⁻¹ | 0.000122 ± 1.6e-05 s⁻¹ | 0.000129 ± 1.4e-05 s⁻¹
16 | C67G | 0.00185 ± 0.00017 s⁻¹ | 2390 ± 300 µM | 3.28e-05 ± 1e-06 s⁻¹ | 0.000109 ± 2.8e-06 s⁻¹ | 0.00046 ± 4e-05 s⁻¹ | 0.00108 ± 3.9e-05 s⁻¹ | 0.00145 ± 3.7e-05 s⁻¹
17 | G13A G40C | 5.83e-05 ± 8.4e-06 s⁻¹ | 2940 ± 1100 µM | < 1e-05 s⁻¹ | – | – | 2.55e-05 ± 7.4e-06 s⁻¹ | 4.56e-05 ± 9.9e-06 s⁻¹

Row | Variant | kcat (glucosamine-6-phosphate [1]) | KM (glucosamine-6-phosphate [2]) | self-cleavage kobs at 40 uM GlcN6P (glucosamine-6-phosphate [3]) | self-cleavage kobs at 160 uM GlcN6P (glucosamine-6-phosphate [4]) | self-cleavage kobs at 640 uM GlcN6P (glucosamine-6-phosphate [5]) | self-cleavage kobs at 2500 uM GlcN6P (glucosamine-6-phosphate [6]) | self-cleavage kobs at 10000 uM GlcN6P (glucosamine-6-phosphate [7])
18 | A12G G38U A39U | < 1e-05 s⁻¹ | – | < 1e-05 s⁻¹ | – | < 1e-05 s⁻¹ | – | –
19 | U31C C68G | 1.29e-05 ± 2.8e-06 s⁻¹ | – | – | – | – | – | –
20 | G13C A53G | 0.000174 ± 2.8e-05 s⁻¹ | 3550 ± 1100 µM | – | – | 2.97e-05 ± 9e-06 s⁻¹ | 7.05e-05 ± 7.7e-06 s⁻¹ | 0.00013 ± 1.9e-05 s⁻¹
21 | G32C C61G | < 1e-05 s⁻¹ | – | < 1e-05 s⁻¹ | – | < 1e-05 s⁻¹ | – | –
22 | G32C U47A | 4.35e-05 ± 2.1e-06 s⁻¹ | 1450 ± 320 µM | – | – | – | 2.87e-05 ± 1.3e-05 s⁻¹ | 3.77e-05 ± 9.7e-06 s⁻¹
23 | A33U U55A | 0.000138 ± 2.3e-05 s⁻¹ | 2730 ± 1200 µM | – | – | – | 7.49e-05 ± 6.9e-06 s⁻¹ | 0.000105 ± 7.9e-06 s⁻¹
24 | U45A C71U | 0.0639 ± 0.022 s⁻¹ | 2060 ± 810 µM | 0.00126 ± 0.00019 s⁻¹ | 0.00507 ± 0.00093 s⁻¹ | 0.012 ± 0.0029 s⁻¹ | – | 0.0584 ± 0.019 s⁻¹
25 | G9A C71U | 5.71e-05 ± 4.6e-06 s⁻¹ | – | – | – | – | – | –
26 | A14G G29U U47G C70G | 8.6e-05 ± 1.6e-05 s⁻¹ | – | – | – | 0.000119 ± 3.1e-05 s⁻¹ | 6.72e-05 ± 1.5e-05 s⁻¹ | 0.000118 ± 2.8e-05 s⁻¹
27 | A6C U45G | < 1e-05 s⁻¹ | – | – | – | – | – | –
28 | U46A C68G | 2.56e-05 ± 5.1e-06 s⁻¹ | – | < 1e-05 s⁻¹ | – | – | 3.32e-05 ± 1.5e-05 s⁻¹ | –
29 | U31C U55C | 0.00793 ± 0.00044 s⁻¹ | 3750 ± 300 µM | 8.92e-05 ± 2.1e-05 s⁻¹ | 0.000317 ± 6.4e-05 s⁻¹ | 0.00116 ± 0.00021 s⁻¹ | 0.00284 ± 0.00079 s⁻¹ | 0.00585 ± 0.00073 s⁻¹
30 | U45G C71U | 0.00857 ± 0.0011 s⁻¹ | 2380 ± 450 µM | 0.000147 ± 1.7e-05 s⁻¹ | 0.000517 ± 8.8e-05 s⁻¹ | 0.00152 ± 0.00031 s⁻¹ | 0.00519 ± 0.00062 s⁻¹ | 0.00653 ± 0.0008 s⁻¹
31 | A12C G60C | < 1e-05 s⁻¹ | – | – | – | < 1e-05 s⁻¹ | – | < 1e-05 s⁻¹
32 | C16U G43U | 4.2e-05 ± 1.9e-07 s⁻¹ | 1250 ± 27 µM | – | – | – | 2.81e-05 ± 1.3e-05 s⁻¹ | 3.73e-05 ± 1e-05 s⁻¹
33 | A15G C16G | 0.00525 ± 0.001 s⁻¹ | 2660 ± 820 µM | 9.12e-05 ± 2.2e-05 s⁻¹ | 0.000213 ± 6.8e-05 s⁻¹ | 0.0011 ± 0.00023 s⁻¹ | 0.00326 ± 0.00063 s⁻¹ | 0.00391 ± 0.00059 s⁻¹
